Source: US20130078247A1

Molecular target: cynomolgus Ang2 (cynomolgus)
Test: competition ELISA: cAng2 binding to cTie2

B1: 00050 (VHH)
VHH: EVQLVESGGGLVQPGGSLRLSCAASGFTFDDYALGWFRQAPGKEREGVSCIRCSDGSTYYADSVKGRFTISSDNSKNTVYLQMNSLRPEDTAVYYCAASIVPRSKLEPYEYDAWGQGTLVTVSS
B1 gave an IC50 (read off the curve) of 10 nM.
